B1: ALKBH7 (parent)
chain: SVICRSLPEGMGPGESGQPPPAC
B2: SFRS1 (parent)
chain: RDIDLKNRRGGPPFAFVEFEDPRD

Variants of: B1
Assay: protein stability index of a GFP-peptide fusion (GPS, HEK-293T) (PSI 1-6); higher = more stable
Conditions: c terminus: native
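Further: lentivirally expressed fusions sorted by FACS into six bins by GFP to DsRed ratio, PSI derived from sequencing read proportions per bin multiplied by bin number.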

Protein stability index: each site, then its substitutions
G12: R 1.82, S 1.87, W 1.09, Y 2.04
P13: A 1.73, C 1.92, D 2.4, E 1.92, F 1.55, G 1.58, H 2.18, I 1.75, K 2.16, L 1.39, M 1.55, N 2.4, Q 2.38, R 3.33, S 2.35, T 1.81, V 1.4, W 1.57, Y 1.74
G14: A 2.37, C 1.52, D 2.25, E 1.53, F 1.61, H 2.07, I 1.24, K 1.58, L 2, M 1.63, N 2.42, Q 2.4, R 1.67, S 1.42, T 1.77, V 1.15, W 1.26
E15: A 1.09, C 1.01, D 2.44, F 2.49, G 1.82, H 1.71, I 2.1, K 1.62, L 1.02, M 2.4, N 1.8, P 1.73, Q 1.16, R 1.6, S 2.68, T 2.01, V 2.44, Y 1.66
S16: A 1.97, D 2.2, E 1.81, F 2.37, G 2.29, H 2.07, I 1.59, K 2.28, M 2.59, N 2.06, P 2.07, Q 1.8, R 2.12, T 1.92, V 3.02, Y 1.95
G17: A 2.39, C 1.73, D 2.36, E 2.45, H 1.4, I 2.46, K 2.94, L 2.14, N 1.95, Q 2.11, R 1.38, S 1.71, T 1.61, Y 1.09
Q18: A 2.15, C 1.66, D 2.05, E 2.15, F 3.03, H 2.38, I 2.56, K 2.16, L 2.07, M 1.85, N 2.05, R 2, S 2.36, Y 3.38
P19: A 1.71, C 3.13, D 4.84, E 5.1, F 1.99, H 3.66, I 3.09, K 3.18, L 2.19, M 1.64, N 4.27, Q 4.22, R 2.69, S 4.04, T 1.95, V 4.2, W 2.26, Y 2.33
P20: C 2.42, D 4.12, E 3.55, F 2.45, G 4.91, H 3.78, I 3.72, K 4.38, M 1.79, N 4.14, Q 1.64, R 4.09, S 3.75, T 2.08, Y 3.31
P21: A 1.68, C 2.17, D 2.63, E 2.47, F 2.69, G 4.95, H 3.44, I 2.5, K 3.92, L 1.28, M 1.18, N 4.05, Q 3.36, S 4.08, T 2.51, V 3.21, Y 2.59
A22: C 4.31, D 5.53, E 4.63, F 5.01, G 5.1, H 4.75, I 3.19, K 5.64, L 4.3, M 4.74, N 5.43, Q 4.92, R 5, S 3.69, T 4.77, V 3.77, W 4.77, Y 4.68
C23: D 4.63, E 4.31, F 4.57, H 5.02, I 5.17, K 4.35, L 4.69, M 5.48, N 5.35, Q 3.8, R 4.76, S 2.99, T 4.52, V 4.54, W 4.15, Y 4.45

Variants of: B2
Assay: as above
Conditions: c terminus: a fixed tail appended

Protein stability index of substitutions, site by site:
R1: A 4.38, C 4.2, D 4.74, E 4.36, F 3.19, G 4.01, H 3.89, I 3.1, K 3.57, L 4.21, M 4.04, N 4.2, P 3.81, Q 3.96, S 3.84, T 3.94, V 3.97, W 2.69, Y 3.65
D2: A 2.59, C 3.1, E 4.06, F 2.91, G 3.06, H 3.19, I 2.68, K 3.12, L 2.62, M 3.29, N 3.41, P 3.51, Q 3.25, R 3.34, S 3.6, T 3.19, V 3.28, W 2.1, Y 2.76
I3: A 4.29, C 3.75, D 4.57, E 4.71, F 3.64, G 4.15, H 3.92, K 3.77, L 3.81, M 3.57, N 3.81, P 3.98, Q 4.1, R 3.6, S 3.45, T 3.73, V 3.79, W 3.95, Y 3.56
D4: A 3.11, C 3.33, E 3.61, F 2.81, G 3.34, H 3.25, I 3.17, K 3.47, L 3.42, M 3.4, N 3.61, P 3.08, Q 3.57, R 3.45, S 3.83, T 3.28, V 2.85, W 2.35, Y 2.92
L5: A 4.09, C 3.11, D 4.49, E 4.49, F 3.35, G 3.74, H 3.59, I 3.67, K 3.81, M 3.93, N 3.89, P 3.68, Q 4.13, R 3.35, S 4.06, T 3.72, V 3.94, W 3.41, Y 3.3
K6: A 4.18, C 3.91, D 3.84, E 4.28, F 3.61, G 3.98, H 4.71, I 3.69, L 3.95, M 4.07, N 4.04, P 3.63, Q 4.22, R 3.47, S 4.35, T 4.02, V 4.09, W 3.79, Y 3.78
N7: A 3.61, C 3.56, D 4.54, E 4.26, F 2.76, G 4.16, H 3.61, I 3.63, K 3.41, L 3.39, M 3.26, P 3.78, Q 3.56, R 3.1, S 3.5, T 3.73, V 3.39, W 3.28, Y 3.02
R8: A 4.06, C 4.23, D 4.42, E 4.73, F 3.75, G 4.46, H 3.71, I 4.08, K 4.13, L 3.77, M 4.12, N 4.27, P 4.19, Q 4.18, S 4.32

From the supplement of paper PMC10567573
